In article PMC5415106 one finds response data, which are given here for two molecules.

Experiment in all cases: GST pull-down, phosphorimaging
Conditions in all cases: chain shown with the change, 10 pmoles GST-Dpb11, read off a plot

Assay [1] has as its target T1, GST-Dpb11-wild-type, P47027.
T1 chain: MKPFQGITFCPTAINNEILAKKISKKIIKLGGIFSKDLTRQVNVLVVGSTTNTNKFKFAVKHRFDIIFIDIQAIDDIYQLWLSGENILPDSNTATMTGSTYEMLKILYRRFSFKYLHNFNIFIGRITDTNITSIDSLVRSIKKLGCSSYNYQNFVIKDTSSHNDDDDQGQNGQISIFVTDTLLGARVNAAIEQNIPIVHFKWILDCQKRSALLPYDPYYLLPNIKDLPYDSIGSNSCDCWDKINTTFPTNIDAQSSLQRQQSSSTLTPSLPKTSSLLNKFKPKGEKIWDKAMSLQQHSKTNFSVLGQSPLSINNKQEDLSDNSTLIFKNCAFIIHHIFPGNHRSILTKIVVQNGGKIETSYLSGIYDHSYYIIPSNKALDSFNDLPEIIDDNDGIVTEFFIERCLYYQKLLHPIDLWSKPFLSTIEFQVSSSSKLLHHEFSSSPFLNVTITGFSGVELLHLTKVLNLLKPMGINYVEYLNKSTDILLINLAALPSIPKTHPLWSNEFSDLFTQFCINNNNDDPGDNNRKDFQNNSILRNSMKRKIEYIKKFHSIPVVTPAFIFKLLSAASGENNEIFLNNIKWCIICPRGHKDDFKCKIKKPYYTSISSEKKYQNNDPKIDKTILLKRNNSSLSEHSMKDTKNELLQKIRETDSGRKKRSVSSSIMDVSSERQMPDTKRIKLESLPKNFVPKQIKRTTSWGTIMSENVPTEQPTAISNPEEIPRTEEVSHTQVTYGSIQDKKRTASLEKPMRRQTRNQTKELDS

Another assay deals with T2, PKA-GINS, Q12488.
T2 chain 1: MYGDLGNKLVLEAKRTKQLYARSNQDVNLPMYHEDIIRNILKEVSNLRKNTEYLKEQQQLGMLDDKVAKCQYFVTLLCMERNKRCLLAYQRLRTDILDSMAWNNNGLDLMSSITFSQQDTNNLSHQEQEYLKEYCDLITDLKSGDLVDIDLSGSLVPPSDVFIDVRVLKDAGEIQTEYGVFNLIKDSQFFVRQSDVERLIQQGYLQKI
T2 chain 2: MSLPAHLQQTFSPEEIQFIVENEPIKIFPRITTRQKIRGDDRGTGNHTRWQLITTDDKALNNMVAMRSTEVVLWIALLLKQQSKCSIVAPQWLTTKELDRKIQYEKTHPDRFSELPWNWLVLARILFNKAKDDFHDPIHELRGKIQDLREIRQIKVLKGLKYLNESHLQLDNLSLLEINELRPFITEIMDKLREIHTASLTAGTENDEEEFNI
T2 chain 3: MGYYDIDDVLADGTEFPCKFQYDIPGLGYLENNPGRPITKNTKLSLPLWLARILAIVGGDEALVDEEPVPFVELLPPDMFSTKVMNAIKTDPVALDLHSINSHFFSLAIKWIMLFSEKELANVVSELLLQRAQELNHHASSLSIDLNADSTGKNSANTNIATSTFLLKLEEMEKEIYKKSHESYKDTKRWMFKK
T2 chain 4: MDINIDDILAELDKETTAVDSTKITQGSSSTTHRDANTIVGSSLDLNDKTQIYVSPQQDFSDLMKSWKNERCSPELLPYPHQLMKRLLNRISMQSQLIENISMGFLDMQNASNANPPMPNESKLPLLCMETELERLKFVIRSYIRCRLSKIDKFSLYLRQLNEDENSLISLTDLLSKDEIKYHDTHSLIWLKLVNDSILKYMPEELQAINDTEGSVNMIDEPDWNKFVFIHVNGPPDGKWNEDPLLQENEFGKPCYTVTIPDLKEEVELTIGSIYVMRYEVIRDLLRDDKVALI

For assay [2], the target named is T3, Sld3 (protein of Fig 3D; the legend prints 'CDK-phosphorylated Sld2'), P53135.
T3 chain: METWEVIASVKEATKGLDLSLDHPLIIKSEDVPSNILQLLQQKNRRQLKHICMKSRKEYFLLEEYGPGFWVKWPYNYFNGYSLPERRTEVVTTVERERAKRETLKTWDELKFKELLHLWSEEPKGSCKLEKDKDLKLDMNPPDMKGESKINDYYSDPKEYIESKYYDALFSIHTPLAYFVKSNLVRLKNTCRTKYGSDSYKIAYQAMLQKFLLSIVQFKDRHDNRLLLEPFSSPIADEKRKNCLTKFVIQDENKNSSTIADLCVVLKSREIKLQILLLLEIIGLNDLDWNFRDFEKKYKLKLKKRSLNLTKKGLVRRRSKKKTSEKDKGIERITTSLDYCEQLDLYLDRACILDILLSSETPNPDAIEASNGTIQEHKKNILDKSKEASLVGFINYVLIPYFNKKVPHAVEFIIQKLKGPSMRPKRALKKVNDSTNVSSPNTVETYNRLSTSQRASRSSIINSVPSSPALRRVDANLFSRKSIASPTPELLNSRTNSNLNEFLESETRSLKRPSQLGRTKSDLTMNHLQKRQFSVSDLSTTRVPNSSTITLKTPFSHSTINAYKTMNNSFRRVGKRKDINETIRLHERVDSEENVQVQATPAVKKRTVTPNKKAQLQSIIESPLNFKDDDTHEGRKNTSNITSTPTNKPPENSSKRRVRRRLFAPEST

B1: Sld2 T84D (protein)
chain: MYSFELDKLKIELKTWEHDFIDKNKREPTRDDIKSLRTVRQMYKQYSTLKKKQSLQRQKVDTQESVELPAHKKDHDEVVEIGPDPQVYGKAISIFDMNLSPIKPIYMTFTNNIDVNNDNSKTISNESSPRKTILLKSSPADRTLVAEPISSVKRQLNFQMLNASSTRTPTSSPCKNRNGKLVEIKKCSPTINPPLESGKPSGYYGPNSPLKLDEENIHLNISLNSSTKRRLQIAYPSLQKTPSKDQADISTSFSPSPLIRRPLTKSLIELAREHTEIVKEFGVLQEEDIEEEEEGEEGENGYDEKNHEDDFGLEDELIRPKVVKDIFQEDDDNDDSQAREDTFIRKRPKRRKVIRRLRDNDPETETAGFERDVHKELVKLKRRKVAEFLGSTSQISDTEFEHDPEASSGVVSSEQKPTAKRKGRKKYNLVSNNFRRLKLPKKNRFSNGRWGRR
In the case of B1, the response in assay [1] (1 pmole Sld2T84D input) is 0.28 pmol; in assay [1] (3 pmoles Sld2T84D input) it was 0.64 pmol; in assay [1] (10 pmoles Sld2T84D input) it was 1.6 pmol.

B2: GST-Dpb11-wild-type, P47027 K463E; K469E; R538E; K549E (protein)
chain: MKPFQGITFCPTAINNEILAKKISKKIIKLGGIFSKDLTRQVNVLVVGSTTNTNKFKFAVKHRFDIIFIDIQAIDDIYQLWLSGENILPDSNTATMTGSTYEMLKILYRRFSFKYLHNFNIFIGRITDTNITSIDSLVRSIKKLGCSSYNYQNFVIKDTSSHNDDDDQGQNGQISIFVTDTLLGARVNAAIEQNIPIVHFKWILDCQKRSALLPYDPYYLLPNIKDLPYDSIGSNSCDCWDKINTTFPTNIDAQSSLQRQQSSSTLTPSLPKTSSLLNKFKPKGEKIWDKAMSLQQHSKTNFSVLGQSPLSINNKQEDLSDNSTLIFKNCAFIIHHIFPGNHRSILTKIVVQNGGKIETSYLSGIYDHSYYIIPSNKALDSFNDLPEIIDDNDGIVTEFFIERCLYYQKLLHPIDLWSKPFLSTIEFQVSSSSKLLHHEFSSSPFLNVTITGFSGVELLHLTEVLNLLEPMGINYVEYLNKSTDILLINLAALPSIPKTHPLWSNEFSDLFTQFCINNNNDDPGDNNRKDFQNNSILENSMKRKIEYIEKFHSIPVVTPAFIFKLLSAASGENNEIFLNNIKWCIICPRGHKDDFKCKIKKPYYTSISSEKKYQN
Turning to B2, the response with PKA-GINS, Q12488 (1 pmole GINS input, parent: est. 0.60) worked out at 0.65 pmol; with PKA-GINS, Q12488 (3 pmoles GINS input, parent: est. 1.4), 1.4 pmol; with PKA-GINS, Q12488 (10 pmoles GINS input, parent: est. 2.5), 2.6 pmol; in assay [2] (1 pmole CDK-Sld3 input, parent: est. 0.34), 0.29 pmol; in assay [2] (3 pmoles CDK-Sld3 input, parent: est. 0.60) it was 0.65 pmol; in assay [2] (10 pmoles CDK-Sld3 input, parent: est. 1.5) it was 1.4 pmol.
